From paper PMC6646356, “The AAA + ATPase TorsinA polymerizes into hollow helical tubes with 8.5 subunits per turn” (Nature Communications, 2019)

Key:
[1] = target: the molecule itself; experiment: SEC; gel filtration of affinity-purified MBP-TorsinA; self-association, elution in the void volume
[2] = target: the molecule itself; experiment: negative-stain electron microscopy; purified TorsinA variants without liposomes, diluted in ATP-containing buffer (HEPES/NaOH pH 8.0, NaCl, 10 mM MgCl2, ATP), 2% uranyl acetate stain; filament formation (self-polymerisation); MBP tag uncleaved or cleaved with 3C protease

Protein | binding result [1] | binding result [2]
MBP-TorsinA (human TorsinA residues 51–332, N-terminally MBP-tagged) (domain or fragment, UniProt O14656 51-332, looked up, TorsinA, human, residues 51-332; MBP tag is cleavable by human rhinovirus 3C protease; uncleaved in this form; Forms helical polymers of no fixed size; also called MBP-tagged TorsinA; wild-type; source: E. coli LOBSTR(DE3) RIL, purified (amylose resin); not shown: MBP, N-terminal, kept) GQKRSLSREALQKDLDDNLFGQHLAKKIILNAVFGFINNPKPKKPLTLSLHGWTGTGKNFVSKIIAENIYEGGLNSDYVHLFVATLHFPHASNITLYKDQLQLWIRGNVSACARSIFIFDEMDKMHAGLIDAIKPFLDYYDLVDGVSYQKAMFIFLSNAGAERITDVALDFWRSGKQREDIKLKDIEHALSVSVFNNKNSGFWHSSLIDRNLIDYFVPFLPLEYKHLKMCIRVEMQSRGYEIDEDIVSRVAEEMTFFPKEERVFSDKGCKTVFTKLDYYYDD | binds | 
TorsinA (human, residues 51–332), MBP cleaved with 3C protease (domain or fragment, UniProt O14656 51-332, looked up, TorsinA, human, residues 51-332; Helical polymer, 8.5 subunits per turn; nucleotide modeled as ATP; also called TorsinA filaments; TorsinA polymers; source: E. coli LOBSTR(DE3) RIL, purified (amylose resin), MBP cleaved with 3C protease during dialysis; not shown: MBP, N-terminal, cleaved) GQKRSLSREALQKDLDDNLFGQHLAKKIILNAVFGFINNPKPKKPLTLSLHGWTGTGKNFVSKIIAENIYEGGLNSDYVHLFVATLHFPHASNITLYKDQLQLWIRGNVSACARSIFIFDEMDKMHAGLIDAIKPFLDYYDLVDGVSYQKAMFIFLSNAGAERITDVALDFWRSGKQREDIKLKDIEHALSVSVFNNKNSGFWHSSLIDRNLIDYFVPFLPLEYKHLKMCIRVEMQSRGYEIDEDIVSRVAEEMTFFPKEERVFSDKGCKTVFTKLDYYYDD |  | binds
TorsinA K174A (domain or fragment, human, UniProt O14656 51-332, looked up, TorsinA, human, residues 51-332; source: E. coli LOBSTR(DE3) RIL, purified (amylose resin)) GQKRSLSREALQKDLDDNLFGQHLAKKIILNAVFGFINNPKPKKPLTLSLHGWTGTGKNFVSKIIAENIYEGGLNSDYVHLFVATLHFPHASNITLYKDQLQLWIRGNVSACARSIFIFDEMDAMHAGLIDAIKPFLDYYDLVDGVSYQKAMFIFLSNAGAERITDVALDFWRSGKQREDIKLKDIEHALSVSVFNNKNSGFWHSSLIDRNLIDYFVPFLPLEYKHLKMCIRVEMQSRGYEIDEDIVSRVAEEMTFFPKEERVFSDKGCKTVFTKLDYYYDD |  | binds
TorsinA K174E (domain or fragment, human, UniProt O14656 51-332, looked up, TorsinA, human, residues 51-332; source: E. coli LOBSTR(DE3) RIL, purified (amylose resin)) GQKRSLSREALQKDLDDNLFGQHLAKKIILNAVFGFINNPKPKKPLTLSLHGWTGTGKNFVSKIIAENIYEGGLNSDYVHLFVATLHFPHASNITLYKDQLQLWIRGNVSACARSIFIFDEMDEMHAGLIDAIKPFLDYYDLVDGVSYQKAMFIFLSNAGAERITDVALDFWRSGKQREDIKLKDIEHALSVSVFNNKNSGFWHSSLIDRNLIDYFVPFLPLEYKHLKMCIRVEMQSRGYEIDEDIVSRVAEEMTFFPKEERVFSDKGCKTVFTKLDYYYDD |  | binds
TorsinA H140N (domain or fragment, human, UniProt O14656 51-332, looked up, TorsinA, human, residues 51-332; source: E. coli LOBSTR(DE3) RIL, purified (amylose resin)) GQKRSLSREALQKDLDDNLFGQHLAKKIILNAVFGFINNPKPKKPLTLSLHGWTGTGKNFVSKIIAENIYEGGLNSDYVHLFVATLHFPNASNITLYKDQLQLWIRGNVSACARSIFIFDEMDKMHAGLIDAIKPFLDYYDLVDGVSYQKAMFIFLSNAGAERITDVALDFWRSGKQREDIKLKDIEHALSVSVFNNKNSGFWHSSLIDRNLIDYFVPFLPLEYKHLKMCIRVEMQSRGYEIDEDIVSRVAEEMTFFPKEERVFSDKGCKTVFTKLDYYYDD |  | binds
